Measured values published in patent US20040005636A1, “Method for obtaining the binding affinities of a peptide library to a protein” (priority 2002, published 2004).
Ends that are not written are not given here. Peptide text beside a SMILES is read from it. * marks the point of attachment. Fluorescein(5-NHCOCH2) = O=C(C*)Nc1ccc2c(c1)C(=O)OC21c2ccc(O)cc2Oc2cc(O)ccc21

Legend:
hERα-LBD = target: T1, hERα-LBD (Homo sapiens, UniProt P03372); assay: Fluorescence polarization assay of coregulator peptide binding to ERα-LBD; settings: ERα-LBD in the presence of estradiol; read-out: Dissociation constant for ERα, Estradiol
T1 construct: The receptor ERα-LBD or TRβ-LBD, expressed using reported protocols; made in house
T1 sequence (P03372 311-547 limits assumed): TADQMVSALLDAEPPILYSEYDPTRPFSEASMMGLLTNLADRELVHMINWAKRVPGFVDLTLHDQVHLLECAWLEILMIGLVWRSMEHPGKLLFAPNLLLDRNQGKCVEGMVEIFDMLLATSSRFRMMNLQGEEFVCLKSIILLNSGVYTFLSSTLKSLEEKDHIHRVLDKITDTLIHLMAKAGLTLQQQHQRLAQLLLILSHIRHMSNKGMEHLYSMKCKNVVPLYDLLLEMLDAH
Procedure: The peptide library synthesized in Example 1 was assayed with ERα or TRβ receptor. Library members were kept at a constant concentration of 10 nM. A ligand was optionally added to the nuclear hormone receptor.
The receptor ERα-LBD or TRβ-LBD, expressed using reported protocols (for TR see, e.g., Darimont et al., Genes Dev., 12(21):3343-56, (1998); and for ER, see, e.g., Shiau et al., Cell, (1998), 95(7):927-937), was used. The concentration of protein varied between 0.001-20 μM in the following way. In 96 well plates, hTRβ-LBD or hERα-LBD was serially diluted from 40 μM to 0.002 μM in binding buffer (50 mM Sodium Phosphate, 150 mM NaCl, pH 7.2, 1 mM DTT, 1 mM EDTA, 0.01% NP40, 10% glycerol), containing 200 μM ligand (T3, for TRβ, or estradiol, diethylstilbestrol, genistein or tamoxifen for ERα).
(§1) Subsequently 10 μL of diluted protein was added to 10 μL of fluorescent coregulator peptide (20 nM) in 384-well plates yielding final protein concentrations of […] and 10 nM fluorescent peptide concentration. The samples were allowed to equilibriate for 30 minutes. Binding was then measured using fluorescence polarization (excitation λ at 485 nm, emission λ at 530 nm) on an Analyst AD (available from Molecular Devices).
(§2) All experiments were carried out in quadruplicate, with each iteration containing the positive and negative controls, and 10-12 dose points. The data were then fit using Klotz plots to determine IC50 values using nonlinear regression analysis that fits the data to a modification of the model of Heyduk and Lee. (Heyduk et al., Proc. Natl. Acad. Sci., (1990), 1774; Heyduk et al., Nature, (1993), 364, 6437; Heyduk et al., Methods Enzymol., 274, 492. Further analysis was conducted using Hill and Scatchard plots to confirm number and homogeneity of binding sites as discussed hereinbelow.
FIG. 6 illustrates direct binding of SRC2-2 to ERα-LBD in the presence of the ligands estradiol, diethylstilbestrol and genistein. […] Measured dissociation constants for binding of members of the SRC peptide library to ERα, in the presence of 3 different ligands, are illustrated in Table 4 wherein the binding units are μM. Table 5 illustrates a comparison of binding constants (μM) for SRC peptides with the TRβ receptor in the presence of thyroid hormone T3, and the ERα receptor in the presence of estradiol.

[1] = target: T2, hERα-LBD (ligand binding domain of estrogen receptor α) (human, UniProt P03372 297-554); assay: fluorescence polarization, labelled peptide 10 nM, hERα-LBD titrated, diethylstilbestrol present
T2 construct: Assayed with estradiol, diethylstilbestrol, genistein or tamoxifen present; the ligand is named under assay in each row
T2 sequence (looked up): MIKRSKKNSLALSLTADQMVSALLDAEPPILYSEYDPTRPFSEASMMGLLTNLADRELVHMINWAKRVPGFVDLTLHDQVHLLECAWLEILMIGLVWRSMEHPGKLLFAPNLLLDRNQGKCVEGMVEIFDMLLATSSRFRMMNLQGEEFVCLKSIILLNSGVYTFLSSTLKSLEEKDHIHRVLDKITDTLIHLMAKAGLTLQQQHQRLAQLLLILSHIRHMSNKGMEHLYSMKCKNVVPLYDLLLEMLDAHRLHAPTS
Procedure: (§3) The concentration of protein varied between 0.001-20 μM in the following way. In 96 well plates, hTRβ-LBD or hERα-LBD was serially diluted from 40 μM to 0.002 μM in binding buffer (50 mM Sodium Phosphate, 150 mM NaCl, pH 7.2, 1 mM DTT, 1 mM EDTA, 0.01% NP40, 10% glycerol), containing 200 μM ligand (T₃, for TRβ, or estradiol, diethylstilbestrol, genistein or tamoxifen for ERα).
as §1
as §2, with “IC₅₀” for “IC50”

[2] = target: T2, hERα-LBD (ligand binding domain of …); assay: fluorescence polarization, labelled peptide 10 nM, hERα-LBD titrated, genistein present
Procedure: as §3, §1
as §2, with “IC₅₀” for “IC50”

[3] = target: T3, hTRβ-LBD (ligand binding domain of thyroid hormone receptor β) (human, UniProt P10828 202-461); assay: fluorescence polarization, hTRβ-LBD titrated, T3 present; Table 3 prints >AL (assay limits) for this pair
T3 construct: Assayed with the small-molecule ligand T3 present
T3 sequence (looked up): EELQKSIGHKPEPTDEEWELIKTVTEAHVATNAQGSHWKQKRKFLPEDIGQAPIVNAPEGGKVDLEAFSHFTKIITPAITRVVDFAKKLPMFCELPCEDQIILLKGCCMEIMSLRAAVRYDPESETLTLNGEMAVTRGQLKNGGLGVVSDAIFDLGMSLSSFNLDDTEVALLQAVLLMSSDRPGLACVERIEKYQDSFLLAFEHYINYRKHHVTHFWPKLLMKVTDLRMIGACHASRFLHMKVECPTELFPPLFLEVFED
Procedure: as §3, §1
as §2, with “IC₅₀” for “IC50”

In the case of CC(C)C[C@H](NC(=O)[C@H](CCC(N)=O)NC(=O)[C@@H](NC(=O)[C@H](CC(C)C)NC(=O)[C@H](CCCCN)NC(=O)[C@H](Cc1c[nH]cn1)NC(=O)[C@H](CO)NC(=O)[C@@H](NC(=O)[C@H](CCC(N)=O)NC(=O)[C@H](CO)NC(=O)[C@H](Cc1ccc(O)cc1)NC(=O)[C@@H](N)CSCC(=O)Nc1ccc2c(c1)C(=O)OC21c2ccc(O)cc2Oc2cc(O)ccc21)[C@@H](C)O)C(C)C)C(=O)N[C@@H](CC(C)C)C(=O)N[C@H](C(=O)N[C@H](C(=O)N[C@H](C(=O)N[C@@H](C)C(=O)N[C@@H](CCC(=O)O)C(=O)N[C@@H](CCC(N)=O)C(=O)N[C@@H](CCC(N)=O)C(=O)O)[C@@H](C)O)[C@@H](C)O)[C@@H](C)O [SRC1-1] (H-C(Fluorescein(5-NHCOCH2))YSQTSHKLVQLLTTTAEQQ-OH), the Kd (hERα-LBD) is reported as 1.21 µM.

CC(C)C[C@H](NC(=O)[C@H](CC(=O)O)NC(=O)[C@H](CCCCN)NC(=O)[C@H](CCC(=O)O)NC(=O)[C@H](CC(=O)O)NC(=O)[C@H](CCCCN)NC(=O)[C@H](CC(=O)O)NC(=O)[C@H](CC(C)C)NC(=O)[C@H](CC(C)C)NC(=O)[C@H](Cc1ccc(O)cc1)NC(=O)[C@H](CCCNC(=N)N)NC(=O)[C@H](CC(C)C)NC(=O)[C@H](CC(C)C)NC(=O)[C@H](CCC(N)=O)NC(=O)[C@H](Cc1c[nH]cn1)NC(=O)[C@H](CC(=O)O)NC(=O)[C@H](CCCCN)NC(=O)[C@H](CO)NC(=O)[C@H](CCC(=O)O)NC(=O)[C@@H](N)CSCC(=O)Nc1ccc2c(c1)C(=O)OC21c2ccc(O)cc2Oc2cc(O)ccc21)C(=O)O [SRC1-3] gave a Kd (hERα-LBD) of 2.54 µM.

Work on CSCC[C@H](NC(=O)[C@H](CCC(N)=O)NC(=O)[C@H](CC(=O)O)NC(=O)[C@H](CO)NC(=O)[C@H](CCCCN)NC(=O)[C@@H](NC(=O)[C@@H](NC(=O)[C@H](CC(C)C)NC(=O)[C@H](CC(C)C)NC(=O)[C@H](CCC(N)=O)NC(=O)[C@H](CC(C)C)NC(=O)[C@H](CC(C)C)NC(=O)[C@H](CCCCN)NC(=O)[C@@H](NC(=O)[C@H](CCC(N)=O)NC(=O)CNC(=O)[C@H](CCCCN)NC(=O)[C@H](CO)NC(=O)[C@H](CC(=O)O)NC(=O)[C@@H](N)CSCC(=O)Nc1ccc2c(c1)C(=O)OC21c2ccc(O)cc2Oc2cc(O)ccc21)[C@@H](C)O)[C@@H](C)O)[C@@H](C)O)C(=O)O [SRC2-1] (H-C(Fluorescein(5-NHCOCH2))DSKGQTKLLQLLTTKSDQM-OH) yielded a Kd (hERα-LBD) of 0.927 µM.

In the case of CC[C@H](C)[C@H](NC(=O)[C@H](CCCNC(=N)N)NC(=O)[C@H](Cc1c[nH]cn1)NC(=O)[C@H](CCCCN)NC(=O)[C@H](CCC(=O)O)NC(=O)[C@H](CCC(N)=O)NC(=O)[C@H](CC(C)C)NC(=O)[C@@H](N)CSCC(=O)Nc1ccc2c(c1)C(=O)OC21c2ccc(O)cc2Oc2cc(O)ccc21)C(=O)N[C@@H](CC(C)C)C(=O)N[C@@H](Cc1c[nH]cn1)C(=O)N[C@@H](CCCCN)C(=O)N[C@@H](CC(C)C)C(=O)N[C@@H](CC(C)C)C(=O)N[C@@H](CCC(N)=O)C(=O)N[C@@H](CC(N)=O)C(=O)NCC(=O)N[C@@H](CC(N)=O)C(=O)N[C@@H](CO)C(=O)N1CCC[C@H]1C(=O)N[C@@H](C)C(=O)O [SRC3-2] (H-C(Fluorescein(5-NHCOCH2))LQEKHRILHKLLQNGNSPA-OH), the Kd (hERα-LBD) is reported as 0.363 µM.

C(5‑iodoacetamidofluorescein)LTARHKILHRLLQEGSPSD [SRC1-2 coregulator peptide] gave a Kd [1] of 0.302 µM and a Kd [2] of 0.298 µM.

With C(5‑iodoacetamidofluorescein)ESKDHQLLRYLLDKDEKDL [SRC1-3 coregulator peptide] the Kd [3] was 100 µM, the Kd [1] was 1.46 µM and the Kd [2] was 2.55 µM.

With C(5‑iodoacetamidofluorescein)DSKGQTKLLQLLTTKSDQM [SRC2-1 coregulator peptide] the Kd [3] was 100 µM, the Kd [1] was 0.896 µM and the Kd [2] was 2.6 µM.

For CLKEKHKILHRLLQDSSSPV (5-iodoacetamidofluorescein coupled to the amino terminal cysteine, also called SRC2-2 peptide) [SRC2-2 coregulator peptide], the Kd [1] was 0.277 µM and the Kd [2] was 0.569 µM.

Work on C(5‑iodoacetamidofluorescein)LQEKHRILHKLLQNGNSPA [SRC3-2 coregulator peptide] yielded a Kd [3] of 100 µM, a Kd [1] of 0.415 µM and a Kd [2] of 1.03 µM.

In the case of C(5‑iodoacetamidofluorescein)YSQTSHKLVQLLTTTAEQQ [SRC1-1 coregulator peptide], the Kd [3] is reported as 100 µM, the Kd [1] is reported as 0.853 µM and the Kd [2] is reported as 5 µM.
